In patent US20060257938A1, “Method of screening for drugs that block ligand binding to a lipid binding protein” (priority 2005, published 2006):
Numbering of substitutions follows the chain as printed. Where “and” joins values, the source holds several entries; their conditions need not be identical. Equal entries are not always repeated.

B1: 38I3, 72A (protein, listed as Rattus norvegicus)
chain: AFDGTWKVDRNENYEKFMEKMGINVVKRKLGAHDNLKITITQEGNKFTVKESSNFRNIDVVFELGVDFAYSAADGTELTGTWTMEGNKLVGKFKRVDNGKELIAVREISGNELIQTYTYEGVEAKRIFKKE
modifications: PEPTIDE (1)...(131) wild-type rat intestinal fatty acid binding protein
B2: 38T3, 72A (protein, listed as Rattus norvegicus)
chain: B1 chain with I38T
modifications: PEPTIDE (1)...(131) wild-type rat intestinal fatty acid binding protein
B3: 38S1, 72A (protein, listed as Rattus norvegicus)
chain: B1 chain with I38S
modifications: PEPTIDE (1)...(131) wild-type rat intestinal fatty acid binding protein
B4: 38Q1, 72A (protein, listed as Rattus norvegicus)
chain: B1 chain with I38Q
modifications: PEPTIDE (1)...(131) wild-type rat intestinal fatty acid binding protein
B5: 38K1, 72A (protein, listed as Rattus norvegicus)
chain: B1 chain with I38K
modifications: PEPTIDE (1)...(131) wild-type rat intestinal fatty acid binding protein
B6: 38G1, 72A (protein, listed as Rattus norvegicus)
chain: B1 chain with I38G
modifications: PEPTIDE (1)...(131) wild-type rat intestinal fatty acid binding protein
B7: 38H1, 72A (protein, listed as Rattus norvegicus)
chain: B1 chain with I38H
modifications: PEPTIDE (1)...(131) wild-type rat intestinal fatty acid binding protein
B8: 38N1, 72A (protein, listed as Rattus norvegicus)
chain: B1 chain with I38N
modifications: PEPTIDE (1)...(131) wild-type rat intestinal fatty acid binding protein
B9: 36I1, 72A (protein, listed as Rattus norvegicus)
chain: B1 chain with L36I, I38L
modifications: PEPTIDE (1)...(131) wild-type rat intestinal fatty acid binding protein
B10: 38F1, 72A (protein, listed as Rattus norvegicus)
chain: B1 chain with I38F
modifications: PEPTIDE (1)...(131) wild-type rat intestinal fatty acid binding protein
B11: 36M, 72A (protein, listed as Rattus norvegicus)
chain: B1 chain with L36M, I38L
modifications: PEPTIDE (1)...(131) wild-type rat intestinal fatty acid binding protein
B12: 36Y, 72A (protein, listed as Rattus norvegicus)
chain: B1 chain with L36Y, I38L
modifications: PEPTIDE (1)...(131) wild-type rat intestinal fatty acid binding protein
B13: 102N, 72A (protein, listed as Rattus norvegicus)
chain: B1 chain with I38L, L102N
modifications: PEPTIDE (1)...(131) wild-type rat intestinal fatty acid binding protein
B14: 36K, 72A (protein, listed as Rattus norvegicus)
chain: B1 chain with L36K, I38L
modifications: PEPTIDE (1)...(131) wild-type rat intestinal fatty acid binding protein
B15: 36L, 72A wt (protein, listed as Rattus norvegicus)
chain: B1 chain with I38L
modifications: PEPTIDE (1)...(131) wild-type rat intestinal fatty acid binding protein
B16: 38E1, 72A (protein, listed as Rattus norvegicus)
chain: B1 chain with I38E
modifications: PEPTIDE (1)...(131) wild-type rat intestinal fatty acid binding protein
B17: 36P, 72A (protein, listed as Rattus norvegicus)
chain: B1 chain with L36P, I38L
modifications: PEPTIDE (1)...(131) wild-type rat intestinal fatty acid binding protein
B18: 36N, 72A (protein, listed as Rattus norvegicus)
chain: B1 chain with L36N, I38L
modifications: PEPTIDE (1)...(131) wild-type rat intestinal fatty acid binding protein
B19: 36R, 72A (protein, listed as Rattus norvegicus)
chain: B1 chain with L36R, I38L
modifications: PEPTIDE (1)...(131) wild-type rat intestinal fatty acid binding protein
B20: 36Q, 72A (protein, listed as Rattus norvegicus)
chain: B1 chain with L36Q, I38L
modifications: PEPTIDE (1)...(131) wild-type rat intestinal fatty acid binding protein
B21: 36S, 72A (protein, listed as Rattus norvegicus)
chain: B1 chain with L36S, I38L
modifications: PEPTIDE (1)...(131) wild-type rat intestinal fatty acid binding protein
B22: 102P, 72A (protein, listed as Rattus norvegicus)
chain: B1 chain with I38L, L102P
modifications: PEPTIDE (1)...(131) wild-type rat intestinal fatty acid binding protein
B23: 38A2, 72A (protein, listed as Rattus norvegicus)
chain: B1 chain with I38A
modifications: PEPTIDE (1)...(131) wild-type rat intestinal fatty acid binding protein

Assay: Probe fluorescence ratio response to arachidonic acid relative to ADIFAB2
Assay type: binding
Conditions: Arachidonic acid; response relative to ADIFAB2
Method in brief: (§1)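 Each fatty acid's response was expressed relative to ADIFAB2, the rI-FABP-L72A probe, as ΔR/ΔRreference. ΔR is the change in the background-corrected two-wavelength intensity ratio R=Fλ1/Fλ2 from its analyte-free baseline R0. Emission was read near about 420-480 nm for unbound and about 495-580 nm for FFA-bound probe.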

Compared with B1, B2 is higher in “DR/DR AA” value: 1.18 for the first, 1.60 for the second.

Compared with B3, B4 is higher in “DR/DR AA” value: 1.28 for the first, 1.87 for the second.

Going from B5 to B6, the “DR/DR AA” value rises from 0.83 to 1.03.

Going from B7 to B8, the “DR/DR AA” value falls from 1.24 to 1.08.

Same assay, conditions: arachidonic acid; response relative to ADIFAB2

Compared with B9, B10 is lower in “DR/DR AA” value: 1.01 for the first, 0.91 for the second.

Going from B11 to B12, the “DR/DR AA” value falls from 1.23 to 0.68.

First: B13
Second: B14
The “DR/DR AA” value of the first is higher: 0.64 for the first, 0.38 for the second.

Going from B15 to B16, the “DR/DR AA” value falls from 1.25 to 0.57.

Going from B17 to B18, the “DR/DR AA” value rises from 0.32 to 0.47.

Going from B19 to B21, the “DR/DR AA” value falls from 1.04 to 0.49.

First: B22
Second: B23
The “DR/DR AA” value of the first is lower: 0.50 for the first, 1.23 for the second.

With B20 the “DR/DR AA” value was 1.20 and 0.837.

Assay: Probe fluorescence ratio response to palmitic acid relative to ADIFAB2
Assay type: binding
Conditions: response relative to ADIFAB2
Method in brief: as §1

Going from B9 to B1, the “DR/DR PA” value rises from 0.80 to 1.12.

Going from B10 to B11, the “DR/DR PA” value rises from 0.85 to 0.97.

Compared with B2, B12 is lower in “DR/DR PA” value: 1.02 for the first, 0.60 for the second.

First: B3
Second: B13
The “DR/DR PA” value of the first is higher: 0.71 for the first, −1.09 for the second.

Compared with B14, B15 is higher in “DR/DR PA” value: 0.16 for the first, 1.13 for the second.

B16 and B17 are the same in “DR/DR PA” value: 0.31 for the first, 0.31 for the second.

Going from B18 to B19, the “DR/DR PA” value rises from 0.39 to 0.70.

First: B4
Second: B5
The “DR/DR PA” value of the first is higher: 1.30 for the first, 0.48 for the second.

First: B21
Second: B6
The “DR/DR PA” value of the first is lower: 0.42 for the first, 0.56 for the second.

Going from B22 to B7, the “DR/DR PA” value rises from 0.39 to 0.74.

First: B8
Second: B23
The “DR/DR PA” value of the first is lower: 0.65 for the first, 0.68 for the second.

In the case of B20, the “DR/DR PA” value is reported as 0.81 and 0.777.

Assay: Probe fluorescence ratio response to linoleic acid relative to ADIFAB2
Assay type: binding
Conditions: response relative to ADIFAB2
Method in brief: as §1

Going from B9 to B1, the “DR/DR LA” value rises from 1.11 to 1.22.

First: B10
Second: B11
The “DR/DR LA” value of the first is lower: 0.95 for the first, 1.10 for the second.

Going from B2 to B12, the “DR/DR LA” value falls from 1.58 to 0.75.

Compared with B3, B13 is lower in “DR/DR LA” value: 1.37 for the first, 0.67 for the second.

Going from B14 to B15, the “DR/DR LA” value rises from 0.38 to 1.21.

First: B16
Second: B17
The “DR/DR LA” value of the first is higher: 0.59 for the first, −7.45 for the second.

Compared with B18, B19 is higher in “DR/DR LA” value: 0.47 for the first, 1.17 for the second.

Going from B4 to B5, the “DR/DR LA” value falls from 1.90 to 0.90.

Going from B21 to B6, the “DR/DR LA” value rises from 0.50 to 1.10.

Compared with B22, B7 is higher in “DR/DR LA” value: 0.54 for the first, 1.25 for the second.

First: B8
Second: B23
The “DR/DR LA” value of the first is lower: 1.12 for the first, 1.31 for the second.

For B20, the “DR/DR LA” value was 1.26 and 0.927.

Assay: Probe fluorescence ratio response to linolenic acid relative to ADIFAB2
Assay type: binding
Conditions: response relative to ADIFAB2
Method in brief: as §1

First: B9
Second: B1
The “DR/DR LNA” value of the first is lower: 1.13 for the first, 1.21 for the second.

Going from B10 to B11, the “DR/DR LNA” value rises from 0.96 to 1.08.

Compared with B2, B12 is lower in “DR/DR LNA” value: 1.64 for the first, 0.68 for the second.

Compared with B3, B13 is lower in “DR/DR LNA” value: 1.37 for the first, 0.71 for the second.

Compared with B14, B15 is higher in “DR/DR LNA” value: 0.42 for the first, 1.00 for the second.

Compared with B16, B17 is higher in “DR/DR LNA” value: 0.29 for the first, 0.36 for the second.

Compared with B18, B19 is higher in “DR/DR LNA” value: 0.42 for the first, 1.17 for the second.

Going from B4 to B5, the “DR/DR LNA” value falls from 1.87 to 0.86.

First: B21
Second: B6
The “DR/DR LNA” value of the first is lower: 0.50 for the first, 1.07 for the second.

Compared with B22, B7 is higher in “DR/DR LNA” value: 0.56 for the first, 1.19 for the second.

First: B8
Second: B23
The “DR/DR LNA” value of the first is lower: 1.14 for the first, 1.30 for the second.

With B20 the “DR/DR LNA” value was 1.28 and 0.880.

Assay: Probe fluorescence ratio response to oleic acid relative to ADIFAB2
Assay type: binding
Conditions: response relative to ADIFAB2
Method in brief: as §1

First: B9
Second: B1
The “DR/DR OA” value of the first is lower: 0.95 for the first, 1.21 for the second.

Compared with B10, B11 is higher in “DR/DR OA” value: 0.97 for the first, 1.12 for the second.

Going from B2 to B12, the “DR/DR OA” value falls from 1.55 to 0.66.

Going from B3 to B13, the “DR/DR OA” value falls from 1.28 to 0.69.

Compared with B14, B15 is higher in “DR/DR OA” value: 0.41 for the first, 1.25 for the second.

Going from B16 to B17, the “DR/DR OA” value falls from 0.54 to 0.14.

Compared with B18, B19 is higher in “DR/DR OA” value: 0.38 for the first, 1.14 for the second.

Going from B4 to B5, the “DR/DR OA” value falls from 1.75 to 0.76.

First: B21
Second: B6
The “DR/DR OA” value of the first is lower: 0.43 for the first, 1.03 for the second.

Going from B22 to B7, the “DR/DR OA” value rises from 0.49 to 1.16.

First: B8
Second: B23
The “DR/DR OA” value of the first is lower: 0.97 for the first, 1.26 for the second.

With B20 the “DR/DR OA” value was 1.12 and 0.792.
